Source: patent US20020115843A1

What was measured:
Assay in all cases: cell-based or functional assay
[1] = biological target: dipeptidyl peptidase IV (DPPIV) (UniProt P27487)
[2] = biological target: myc-His tagged DPRP-2 (expressed from pcDNA-MycHis-DPRP2) (human) (UniProt Q86TI2)
[3] = biological target: myc-His tagged DPRP-1 (expressed from pcDNA-MycHis-DPRP1) (human) (UniProt Q6V1X1)
Sequence of myc-His tagged DPRP-1 (expressed from pcDNA-MycHis-DPRP1) (human) (Q6V1X1 17-898): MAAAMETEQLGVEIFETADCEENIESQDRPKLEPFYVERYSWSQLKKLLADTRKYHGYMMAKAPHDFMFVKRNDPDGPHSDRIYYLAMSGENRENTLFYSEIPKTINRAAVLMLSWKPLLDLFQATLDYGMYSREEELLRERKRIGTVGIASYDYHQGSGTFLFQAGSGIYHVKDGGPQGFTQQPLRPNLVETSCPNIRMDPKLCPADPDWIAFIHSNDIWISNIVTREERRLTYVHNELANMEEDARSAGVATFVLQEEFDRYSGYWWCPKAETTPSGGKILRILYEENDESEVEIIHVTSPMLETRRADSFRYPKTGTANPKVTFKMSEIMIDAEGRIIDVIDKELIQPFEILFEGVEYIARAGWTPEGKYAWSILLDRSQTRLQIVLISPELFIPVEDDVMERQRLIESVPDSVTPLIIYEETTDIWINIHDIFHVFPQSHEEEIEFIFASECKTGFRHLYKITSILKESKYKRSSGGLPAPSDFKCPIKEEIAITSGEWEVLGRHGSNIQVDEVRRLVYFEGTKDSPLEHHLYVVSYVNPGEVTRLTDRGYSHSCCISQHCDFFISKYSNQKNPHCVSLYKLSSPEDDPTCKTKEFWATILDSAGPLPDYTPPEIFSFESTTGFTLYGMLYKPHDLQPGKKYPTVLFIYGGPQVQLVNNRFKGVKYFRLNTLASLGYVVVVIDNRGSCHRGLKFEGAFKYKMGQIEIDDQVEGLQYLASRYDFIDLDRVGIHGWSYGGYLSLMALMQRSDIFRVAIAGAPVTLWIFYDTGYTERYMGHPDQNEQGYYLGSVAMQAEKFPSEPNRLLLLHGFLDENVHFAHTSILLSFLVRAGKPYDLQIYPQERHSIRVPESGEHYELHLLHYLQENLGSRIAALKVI

Sequence of myc-His tagged DPRP-2 (expressed from pcDNA-MycHis-DPRP2) (human) (Q86TI2 whole entry): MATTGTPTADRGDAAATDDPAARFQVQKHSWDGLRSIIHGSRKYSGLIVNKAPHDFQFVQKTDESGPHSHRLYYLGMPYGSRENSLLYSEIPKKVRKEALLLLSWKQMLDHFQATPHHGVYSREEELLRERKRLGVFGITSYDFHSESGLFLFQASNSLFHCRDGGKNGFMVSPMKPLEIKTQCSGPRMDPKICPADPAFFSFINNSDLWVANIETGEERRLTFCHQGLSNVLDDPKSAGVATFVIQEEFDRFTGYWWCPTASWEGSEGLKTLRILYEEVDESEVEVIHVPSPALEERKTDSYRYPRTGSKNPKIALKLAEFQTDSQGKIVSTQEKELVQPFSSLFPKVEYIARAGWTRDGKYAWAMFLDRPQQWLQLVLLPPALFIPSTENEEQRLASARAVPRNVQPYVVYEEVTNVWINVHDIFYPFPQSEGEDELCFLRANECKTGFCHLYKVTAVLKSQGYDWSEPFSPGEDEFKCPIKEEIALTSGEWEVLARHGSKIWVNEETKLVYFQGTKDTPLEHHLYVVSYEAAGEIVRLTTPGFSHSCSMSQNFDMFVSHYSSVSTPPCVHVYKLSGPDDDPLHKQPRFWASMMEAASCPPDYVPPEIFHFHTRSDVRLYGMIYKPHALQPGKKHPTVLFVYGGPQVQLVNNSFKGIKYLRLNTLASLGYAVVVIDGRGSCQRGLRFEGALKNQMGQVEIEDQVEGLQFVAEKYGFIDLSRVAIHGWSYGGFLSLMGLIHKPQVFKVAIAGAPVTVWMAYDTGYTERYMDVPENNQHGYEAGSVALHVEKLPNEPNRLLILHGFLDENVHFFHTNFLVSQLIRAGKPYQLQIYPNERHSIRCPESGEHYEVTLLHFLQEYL
Sequence of dipeptidyl peptidase IV (DPPIV) (P27487 39-766 limits assumed): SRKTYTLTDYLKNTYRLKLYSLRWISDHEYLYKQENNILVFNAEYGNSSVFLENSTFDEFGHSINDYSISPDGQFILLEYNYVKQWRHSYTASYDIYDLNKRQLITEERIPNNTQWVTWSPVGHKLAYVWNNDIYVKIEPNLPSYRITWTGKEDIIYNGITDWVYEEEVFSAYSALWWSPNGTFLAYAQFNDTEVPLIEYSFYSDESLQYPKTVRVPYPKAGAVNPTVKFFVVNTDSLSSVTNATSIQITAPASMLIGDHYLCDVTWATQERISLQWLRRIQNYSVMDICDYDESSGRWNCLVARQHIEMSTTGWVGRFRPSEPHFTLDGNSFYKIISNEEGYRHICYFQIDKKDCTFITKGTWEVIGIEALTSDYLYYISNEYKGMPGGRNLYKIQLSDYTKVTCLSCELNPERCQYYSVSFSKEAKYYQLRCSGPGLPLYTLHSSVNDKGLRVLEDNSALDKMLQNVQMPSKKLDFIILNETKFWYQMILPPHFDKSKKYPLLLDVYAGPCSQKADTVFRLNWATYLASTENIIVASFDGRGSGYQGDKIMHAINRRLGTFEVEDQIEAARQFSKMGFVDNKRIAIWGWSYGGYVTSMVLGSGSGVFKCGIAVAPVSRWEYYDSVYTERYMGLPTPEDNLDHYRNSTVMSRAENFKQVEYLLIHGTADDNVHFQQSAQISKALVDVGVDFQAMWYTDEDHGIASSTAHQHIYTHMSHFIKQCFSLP

Row | Residual activity (% of control), Ala-Pro-AMC cleavage, inhibitor at 50 µg/ml [1] | Residual activity (% of control), Ala-Pro-AMC cleavage, inhibitor at 50 µg/ml [2] | Residual activity (% of control), Ala-Pro-AMC cleavage, inhibitor at 50 µg/ml [3] | Residual activity (% of control), Ala-Pro-AMC cleavage, inhibitor at 2 µg/ml [1] | Residual activity (% of control), Ala-Pro-AMC cleavage, inhibitor at 2 µg/ml [2] | Residual activity (% of control), Ala-Pro-AMC cleavage, inhibitor at 2 µg/ml [3] | Substance
1 | 90.7 % of control | 90.4 % of control | 91.1 % of control | – | – | – | Leupeptin (peptide)
2 | – | – | – | 93.5 % of control | 95 % of control | 97.3 % of control | Pepstatin (peptide)
